Values of other authors as cited in patent publication US9358478B2, “Spray-drying apparatus and methods of using the same” (Bend Research, Inc., priority 2010, dated 2016).

Conditions: in words

Peptide YY (PYY) [Active Agent 3]
solubility in water: soluble
